Laboratory results from US20180023057A1.

Molecular target: E-cadherin on human iPS cells (TkDN4-M) (human) (UniProt P12830)
Assay: cell-based or functional assay

Sequence of E-cadherin on human iPS cells (TkDN4-M) (human) (P12830 155-882 limits assumed): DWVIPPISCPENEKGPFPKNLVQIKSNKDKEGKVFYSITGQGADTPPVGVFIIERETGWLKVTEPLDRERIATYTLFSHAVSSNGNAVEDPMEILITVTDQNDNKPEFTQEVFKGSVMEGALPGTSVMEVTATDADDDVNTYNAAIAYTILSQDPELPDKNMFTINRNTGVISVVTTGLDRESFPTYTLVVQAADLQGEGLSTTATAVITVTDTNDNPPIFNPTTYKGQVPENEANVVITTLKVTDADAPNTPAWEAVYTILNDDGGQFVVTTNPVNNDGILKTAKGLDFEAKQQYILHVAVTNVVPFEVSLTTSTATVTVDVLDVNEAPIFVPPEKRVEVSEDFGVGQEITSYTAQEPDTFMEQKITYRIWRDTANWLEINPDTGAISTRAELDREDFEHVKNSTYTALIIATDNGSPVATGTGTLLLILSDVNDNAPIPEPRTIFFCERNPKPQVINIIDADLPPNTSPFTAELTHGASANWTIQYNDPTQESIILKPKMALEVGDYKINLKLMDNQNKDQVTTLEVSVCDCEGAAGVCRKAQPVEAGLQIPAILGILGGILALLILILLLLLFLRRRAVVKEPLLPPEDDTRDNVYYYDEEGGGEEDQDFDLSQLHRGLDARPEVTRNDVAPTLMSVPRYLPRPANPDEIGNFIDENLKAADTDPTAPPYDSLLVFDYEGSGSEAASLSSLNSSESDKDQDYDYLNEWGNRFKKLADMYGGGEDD

B1: E-cadherin-Fc fusion protein (Fc fusion, not shown: a dimerising Fc or GST)
chain: DWVIPPISCPENEKGEFPKNLVQIKSNRDKETKVFYSITGQGADKPPVGVFIIERETGWLKVTQPLDREAIAKYILYSHAVSSNGEAVEDPMEIVITVTDQNDNRPEFTQPVFEGFVAEGAVPGTSVMKVSATDADDDVNTYNAAIAYTIVSQDPELPHKNMFTVNRDTGVISVLTSGLDRESYPTYTLVVQAADLQGEGLSTTAKAVITVKDINDNAPVFNPSTYQGQVPENEVNARIATLKVTDDDAPNTPAWKAVYTVVNDPDQQFVVVTDPTTNDGILKTAKGLDFEAKQQYILHVRVENEEPFEGSLVPSTATVTVDVVDVNEAPIFMPAERRVEVPEDFGVGQEITSYTAREPDTFMDQKITYRIWRDTANWLEINPETGAIFTRAEMDREDAEHVKNSTYVALIIATDDGSPIATGTGTLLLVLLDVNDNAPIPEPRNMQFCQRNPQPHIITILDPDLPPNTSPFTAELTHGASVNWTIEYNDAAQESLILQPRKDLEIGEYKIHLKLADNQNKDQVTTLDVHVCDCEGTVNNCMKAGIVAAGLQV
B1 showed a diameter of hiPS cell aggregates on Day 5 of culture in Essential 8, E-cadherin-Fc 50 or 100 µg/ml for the first 48 hours of 500 µm, a sizes of hiPS cell aggregates 48 hours after the E-cadherin-Fc treatment, 5 µg/ml (without E-cadherin-Fc: 1000 to 3000 µm) of 300 to 700 µm and a sizes of hiPS cell aggregates 48 hours after the E-cadherin-Fc treatment, 10 µg/ml of 200 to 400 µm. For the same binder, the sizes of hiPS cell aggregates 48 hours after the E-cadherin-Fc treatment, 20 µg/ml was 100 to 500 µm, the sizes of hiPS cell aggregates 48 hours after the E-cadherin-Fc treatment, 50 µg/ml was 100 to 300 µm and the sizes of hiPS cell aggregates 48 hours after the E-cadherin-Fc treatment, 100 µg/ml was 150 to 700 µm.
